Experimental data published in patent publication US20030082187A1.

Experiments:
[1] = molecular target: murine VCAM-1 (vascular endothelial adhesion molecule-1) (murine) (UniProt P29533); experiment: cell-based or functional assay
[2] = molecular target: murine VCAM-1 (vascular endothelial adhesion molecule-1) (murine) (UniProt P29533); experiment: bEnd.3 cells, unstimulated against IL-1α-stimulated

Chain of UniProt P29533 (P29533 25-739): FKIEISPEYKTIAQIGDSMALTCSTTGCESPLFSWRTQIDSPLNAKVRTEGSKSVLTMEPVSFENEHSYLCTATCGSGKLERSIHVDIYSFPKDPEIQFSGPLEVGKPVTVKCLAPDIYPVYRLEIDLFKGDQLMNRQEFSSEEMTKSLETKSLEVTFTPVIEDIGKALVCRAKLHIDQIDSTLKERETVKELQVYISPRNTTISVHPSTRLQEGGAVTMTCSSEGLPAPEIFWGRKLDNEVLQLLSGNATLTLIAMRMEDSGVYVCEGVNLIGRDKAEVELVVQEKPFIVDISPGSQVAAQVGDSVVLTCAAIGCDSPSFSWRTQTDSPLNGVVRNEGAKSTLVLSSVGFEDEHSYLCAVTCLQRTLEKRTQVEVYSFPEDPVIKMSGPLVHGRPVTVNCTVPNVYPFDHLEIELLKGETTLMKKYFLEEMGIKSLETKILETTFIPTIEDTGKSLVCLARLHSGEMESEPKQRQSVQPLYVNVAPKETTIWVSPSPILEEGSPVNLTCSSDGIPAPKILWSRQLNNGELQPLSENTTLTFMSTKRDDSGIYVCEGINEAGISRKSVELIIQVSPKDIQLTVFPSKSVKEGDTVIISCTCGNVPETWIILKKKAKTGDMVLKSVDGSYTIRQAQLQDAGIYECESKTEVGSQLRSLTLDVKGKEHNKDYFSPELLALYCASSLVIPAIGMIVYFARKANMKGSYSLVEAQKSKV

Row | Substance | Generation of Factor Xa (intact cells, control/unstimulated) (ng per 10^4 cells per 60 min) [1] | Generation of Factor Xa (permeabilized cells, control/unstimulated) (ng per 10^4 cells per 60 min) [1] | Generation of Factor Xa (intact cells, IL-1α) (ng per 10^4 cells per 60 min) [1] | Generation of Factor Xa (permeabilized cells, IL-1α) (ng per 10^4 cells per 60 min) [1] | percent lower amount bound to unstimulated versus stimulated cells [2]
1 | control IgG·tTF (R187) coaguligand (from UniProt P13726 33-251) | 0.26 | 0.41 | – | – | –
2 | truncated tissue factor (tTF), unconjugated (from UniProt P13726 33-251) | 0.26 | 0.39 | – | – | –
3 | anti-VCAM-1·tTF coaguligand (MK2.7 anti-VCAM-1 IgG covalently linked to truncated tissue factor) (from UniProt P13726 33-251) | 1.64 | 49.2 | 3.17 | 98.8 | 50%
